# Assay: soluble on expression in E. coli; label from the status in PepcDB or PDB records
row,Sequence,soluble on expression in E. coli
1,MGSDKIHHHHHHMFLDGEEGLIGYIIVTGTAGAGKSSLVGALADRITSLGANVATLNLDPAAEKLPYDPSVDARDYVSVAELMDKGLGPNGALVAAVDSLINHVLDIREEIDYYSPDYVVVDTPGQLELFAYRVGGPLVLRGIMGDYNGVNIFLIDSIFIDNAISLVSALLLASSVAVRLGLPQVNAVSKADMLLPEVREEVIPRLGEPGFLEFLLEKDKTYEGAGKALAEELARAIETTGFIGEVLQASVLEPETVTLLAAKAQQILAGGDDYKIYDITGQ,not soluble
2,MSLLWKKAQEETHDYIIRKADPSDAAGIISCMQSVMDERIYLVGEYYLLSERAEQERIKSLDDLTLVCVIDRKVVGVLTVQRGIYRKNRHTGMLGIAIMAGHRHKGLGTRMIKEAILWCEDQGIKKLNLEVFSTNVNAIKTYEKVGFEVEGKRRKQFLIDGQYVDDVLMTYYVDKSLKEEGHHHHHH,soluble
3,AQAFVNSKIQPGKVVVFIKPTCPFCRKTQELLSQLPFKEGLLEFVDITATSDTNEIQDYLQQLTGARTVPRVFIGKECIGGCTDLESMHKRGELLTRLQQVGAVK,soluble
4,MSLNQASLERNELHNTIWKVANELRGSVDGWDFKQYVLGILFYRYISENMTHYINKEERKRDPSFDYAKLSDEKAERGRKHLIEQKGFFIPPSALFCNALKNACHNEDLNVTLQNIFNEIEKSSLGTPSEENVKGLFADLDVNSNKLGSSHQNRVEKLTKILEAIGGMQLGDYLKSGIDVFGDAYEYLMAMYASNAGKSGGEFFTPQEVSELLAKITLHGQESVNKVYDPCCGSGSLLLQFSKVLGDKNVSKGYFGQEINLTTYNLCRINMFLHDINYSKFHIAHGDTLLDPKHEDDEPFDAIVSNPPYSTKWVGDSNPILINDERFSPAGVLAPKNAADLAFTMHMLSYLSNSGTAAIVEFPGVLYRGNAEAKIREYLVKENVIDCVIALPDNLFFGTSIATCILVLKKNEGHHHHHH,not soluble
5,MGFGDLKSPAGLQVLNDYLADKSYIEGYVPSQADVAVFEAVSSPPPADLCHALRWYNHIKSYEKEKASLPGVKKALGKYGPADVEDTTGSGATDSKDDDDIDLFGSDDEEESEEAKRLREERLAQYESKKAKKPALVAKSSILLDVKPWDDETDMAKLEECVRSIQADGLVWGSSKLVPVGYGIKKLQIQCVVEDDKVGTDMLEEQITAFEDYVQSMDVAAFNKI,soluble
6,MPCRLTRLFGIEFPIIQAPMAGVQGSALAIAVSEAGGLGSLPCAMLSLEALEAELTAIRSQTAKPINVNFFCHREPVAQAAKQAAWLEQLAPYFAEFNLDPNAQPAGAQRTPYSKAQAEVLAKFKPEVVSFHFGLPDEELLLEIKSWGSKVISTATTVEEALWLEARGADAIIAQGLEAGGHRGHFLSEDLTEQLGTFSLLPQIIAAVEIPVIAAGGIVDATTVRAAMTMGASAVQVGTAYLLCPECNTSAIHREALQSDAAQHTALTNLFSGRPARGIVNRFMAEMGPMNEAVPDFPLASSAVAGLRTAAERLGFWDFSPLWCGQNASGCRAIPAADLTRSFVLSLPSSCVEPQEKSG,soluble
7,MGSDKIHHHHHHMEENIWWRGKDYIEEDEDIKKWNSAKFKWIPKEINKISLQPFSLNFIVGPRQVGKTTLIKLLIKKLLESNHNPLSIFYCSCDLVSDYEELLKRTRDYLKIRKQEGIKSSFIFLDEVTFVKEWYRAVKHLIDTGELTSDVVTVSGSSSLTILKQKESFPGRRGNGTDVILYPLSFSGYINVINPKIEVRPGWYSEIEELFESYLKVGGLPPSINGLSPLKTYTEWIIYEINRVGRDEMLAKQILSAVLSTTPSKVSYNSIAKEIGVNHRTVAEYIKLFNDMFLTLTLHFIDVNTGYYNYRKQIKIHFVDPLFYDVMSTWTGVKRPDDPIIVEGIVASHLSRIYSIGYTEVGKEEIDVVTLPEVIGYEVKYRERTKQVKVIAGKMKKVITLSKHGENDTFPVHLFLAELNI,not soluble
8,MLEAKNLTCIRDDRCLFQQLSFCIAPGEIVQIEGPNGAGKTSLLRILAGLAEADEGQVNWRDKNIRRDRAKYHQDLLFLGHQPGIKSVLTPFENLLFYQSVFQKVDSAAIWQALAQVGLVGYEDLPVSQLSAGQQRRVALARLWLSPAPLWILDEPLTAIDKQGVSTLLALFVQHAAKGGMVLLTTHQDLGAVSHNVRKICLANTQEKSCLSACCAVN,not soluble
9,MVIRVYIASSSGSTAIKKKQQDVLGFLEANKIGFEEKDIAANEENRKWMRENVPENSRPATGYPLPPQIFNESQYRGDYDAFFEARENNAVYAFLGLTAPPGSKEAEV,soluble
10,MAGPLSGLRVVELAGIGPGPHAAMILGDLGADVVRIDRPSSVDGISRDAMLRNRRIVTADLKSDQGLELALKLIAKADVLIEGYRPGVTERLGLGPEECAKVNDRLIYARMTGWGQTGPRSQQAGHDINYISLNGILHAIGRGDERPVPPLNLVGDFGGGSMFLLVGILAALWERQSSGKGQVVDAAMVDGSSVLIQMMWAMRATGMWTDTRGANMLDGGAPYYDTYECADGRYVAVGAIEPQFYAAMLAGLGLDAAELPPQNDRARWPELRALLTEAFASHDRDHWGAVFANSDACVTPVLAFGEVHNEPHIIERNTFYEANGGWQPMPAPRFSRTASSQPRPPAATIDIEAVLTDWDG,soluble
11,MSLTADKYTVAINENALKILGEIVFLMGASQNFAKYPVSFIINYLLPSIYLNQYRIYRTVKDNKPIGFACWAFINDQVEKELIENDINLSVEERNSGENIYVLYFIAPFGHAKQIVHDLKNNIFPNKIVKGLRLDKDGKKVLRVATYYEGHHHHHH,soluble
12,SANDKQYISYNNVHQLCQVSAERIKNFKPDLIIAIGGGGFIPARILRTFLKEPGVPTIRIFAIILSLYEDLNSVGSEVEEVGVKVSRTQWIDYEQCKLDLVGKNVLIVDEVDDTRTTLHYALSELEKDAAEQAKAKGIDTEKSPEMKTNFGIFVLHDKQKPKKADLPAEMLNDKNRYFAAKTVPDKWYAYPWESTDIVFHTRMAIEQGNDIFIPEQEHKQ,soluble
13,MGSSHHHHHHSSGLVPRGSHMASNPNDDMPVDKILEAELISDPKVEQVVPFEQVNENDPVSNICKAADRQLVTLVEWAKRIPHFSSLPLEDQVILLRAGWNELLIASFSHRSIDVKDSILLASGLHVHRHSAHQAGVGPIFDRVLTELVSKMRDMMMDKTELGCLRAVVLFNPDVKNPSDSAHIESLREKVYASLEAYCRSKYPDQPGRFAKLLLRLPALRSIGLKCLEHLFFFKLIGDTPIDKFLMNMLETTSDFPV,soluble
14,MGSDKIHHHHHHMAHLSYSPPRNFDALYRQRVFQSHQAVRMHDAAARELADHSLTWRSGNVDAALYKARARRLTLFSFRYGAEVEIAPRPSEEFIVVHHSIRGAAELSVDGQHMVLPQGRTGWMAPRRNWRMRWEAGCEQLILKIPRDMIEAGGIAPMAPLATLPAGLDTQWLLLVQVLLGASSAPTCAGEPAAWVEHIEQGLASLLRAASSCSLPRESSDRNFVARDPIARLQAMEDYMRERLGAPIGLADLSGAAGVSARVLQQTCQRHRQMSPMELLRDMRLDAVHAWLSEHPSANITETALFYGFGHLGRFAAYYRQRFGESPHQTAQRRCCALS,not soluble
15,SMQGPRTRARLGANEVLLVVGGFGSQQSPIDVVEKYDPKTQEWSFLPSITRKRRYVASVSLHDRIYVIGGYDGRSRLSSVECLDYTADEDGVWYSVAPMNVRRGLAGATTLGDMIYVSGGFDGSRRHTSMERYDPNIDQWSMLGDMQTAREGAGLVVASGVIYCLGGYDGLNILNSVEKYDPHTGHWTNVTPMATKRSGAGVALLNDHIYVVGGFDGTAHLSSVEAYNIRTDSWTTVTSMTTPRCYVGATVLRGRLYAIAGYDGNSLLSSIECYDPIIDSWEVVTSMGTQRCDAGVCVLRE,soluble
16,MEYFDMRKMSVNLWRNAAGETREICTFPPAKRDFYWRASIASIAANGEFSLFPGMERIVTLLEGGEMLLESADRFNHTLKPFQPFAFAADQVVKAKLTAGQMSMDFNIMTRLDVCKAKVRIAERTFTTFGSRGGVVFVINGAWQLGDKLLTTDQGACWFDGRHTLRLLQPQGKLLFSEINWLAGHSPDQVQ,soluble
17,MDNNEKEKSKSELLVVTGLSGAGKSLVIQCLEDMGYFCVDNLPPVLLPKFVELMEQGNPSLRKVAIAIDLRGKELFNSLVAVVDKVKSESDVIIDVMFLEASTEKLISRYKETRRAHPLMEQGKRSLINAINDEREHLSQIRSIANFVIDTTKLSPKELKERIRRYYEDEEFETFTINVTSFGFKHGIQMDADLVFDVRFLPNPYYVVDLRPLTGLDKDVYNYVMKWKETEIFFEKLTDLLDFMIPGYKKEGKSQLVIAIGCTGGQHRSVALAERLGNYLNEVFEYNVYVHHRDAHIESGEKK,not soluble
